Data reported in the supplement of paper PMC9170038.

What was measured:
MS2 coat protein [1] = assay: apparent KD of MS2 coat protein, switch ON state; designed switch direction (-1 OFF switch, 1 ON switch): -1; higher = weaker reporter binding; conditions: FMN input: 0 or 200 uM; Eterna round: R93 (includes R88 designs)
Procedure, shortened: (§1)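 Illumina sequencing clusters served as templates for on-chip transcription of the designed RNA switches. SNAP-549-labelled MS2 coat protein was then titrated in twofold steps from 0.7 or 1.5 nM to 3 µM, allowing 0.8–1.5 h per step at first and 10–20 min per step later. The buffer held 100 mM Tris-HCl pH 7.5, 80 mM KCl and 4 mM MgCl2, without or with constant ligand. Apparent KD is the median per design of normalised cluster binding-curve fits.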

MS2 coat protein [2] = assay: apparent KD of MS2 coat protein, switch OFF state (with FMN for OFF switches, without FMN for ON switches); designed switch direction (-1 OFF switch, 1 ON switch): -1; higher = weaker reporter binding; conditions: FMN input: 0 or 200 uM; Eterna round: R93 (includes R88 designs)
Procedure, shortened: as §1

Row | Sequence | apparent KD of MS2 coat protein (MS2 coat protein [1]) | apparent KD of MS2 coat protein (MS2 coat protein [2])
1 | AGUUGGCGAGGAUAUACAUGAGGAUCACCCAUGUAAGAGAAAAAAAGGAGAAAAAAAAGUAGAAGGCGCUGACA [Mat - Exclusion 3 - Lego mod - D45] | 35.4 nM | 41.9 nM
2 | AGUUGGCGAGGAUAUACAUGAGGAUCACCCAUGUGAAAGAAAAAAGUGAAAAAGCAAAGUAGAAGGCGCUGACA [73%, Moding Norbert Elias, 5] | 34.9 nM | 192 nM
3 | AUAAAACAUGAGGAUCACCCAUGUGAGGAUAUCCUAAAAGAAAGAAAAAAAAAAAAAUGGAGAAGGCACAAUAA [Amethyst 47] | 119 nM | 159 nM
4 | AUAAAACAUGAGGAUCACCCAUGUGAGGAUAUGCGAAAAUAAAUAAAAUAAAAUAAAAGCAGAAGGUACAAAUA [LROPPY Exclusion 1 - v04_deltaG=2.5 breakup some As] | 29.3 nM | 40.2 nM
5 | AUAAAACAUGAGGAUCACCCAUGUGAGGAUAUGCUAAAAUAAAAUAAAAUAAAAUAAUGCAGAAGGCACAAAUA [Fancy Pants] | 37.6 nM | 53.8 nM
6 | AUAAACUGAGGAUAUACAUGAGGAUCACCCAUGUAAAAAAAAAAAUGAUCCUCAAAAAGUAGAAGGCAGAAUAA [JR_Exc003_Sub016] | 23.4 nM | 35.8 nM
7 | AUAGUACAUGAGGAUCACCCAUGUCAGGAUAUGCGAAACGAAAAAAAAAAAAAGUGAAGUAGAAGGGACUAUAA [EX1 Malc#9] | 29.8 nM | 30.4 nM
8 | AUCAUGUAAGGAUAUUUAAGAAAAGAAAAGAAAGAAAAGAAAAAGAAGGUACAUGAGGAUCACCCAUGUAAGAA [EteRNA is fun!] | 27.1 nM | 18.9 nM
9 | AUCGAUCGAGGAUAUACAUGAGGAUCACCCAUGUAAAAAAAAAAAAAGUCCUCAGGACGUAGAAGGCGACGCAA [JR_Exc003_Sub401] | 16.6 nM | 22.3 nM
10 | AUCUUGUCAGGAUAUGACUACAUAAAAAAUAAAAAAUGUAGUCAGAAGGGACAUGAGGAUCACCCAUGUACCAA [Mat - Exclusion 4 - Eli mod - D96] | 20.4 nM | 22.3 nM
11 | AUGUACCUAGGAUAUACAUGAGGAUCACCCAUGUACUGGGAGCAAUCAAGUUAAUAUUGUAGAAGGAGGUGAAA [JR_Exc003_Sub315] | 20.1 nM | 58.6 nM
12 | AUGUAGGGAGGAUAUACAUAGAUACAGAUUCAUGUGGAACUACAUGAGGAUCACCCAUGUAGAAGGCCCUAAAA [Mat - Same state - Mayanna Mod - D125] | 27.4 nM | 117 nM
13 | AUUAUGUCAGGAUAUCAGUAGUAAAAAAAAAAAAUUACUACUGAGAAGGGACAUGAGGAUCACCCAUGUCAAAA [EX4 308: Super Stable 8] | 39 nM | 34 nM
14 | CAAAGGUGAGGAUAUACAAAACUAUGACGAAAGUCAUAAAAACAUGAGGAUCACCCAUGUAGAAGGCACCACAA [E2 64% 2] | 31.6 nM | 23.7 nM
15 | CACGUACAUGAGGAUCACCCAUGUUAGGAUAUGCCGGGUAAGAGAAAACAAAAAAUCAGCAGAAGGAACGAAAC [Bilbo Confounded 18 - Jieux - Exclusion 1] | 28.2 nM | 28.5 nM
16 | CAGUACUGAGGAUAUACAUGAGGAUCACCCAUGUAUCAAAGCUAGGAAACUAGCACAUGUAGAAGGCAGUACUG [Ex3: 823] | 25.7 nM | 132 nM
17 | CAGUACUGAGGAUAUACAUGAGGAUCACCCAUGUGGUCAAGCUAGGAAACUAGCAAAUGUAGAAGGCAGUACUG [Ex3: 812] | 80.9 nM | 35.6 nM
18 | CCAGAUGCAGGAUAUACAUGAGGAUCACCCAUGUGGCACACACCCACCCACAGCACCCGUAGAAGGGCAGCACG [Halfast on Cytosine - Jieux - Exclusion 3] | 27 nM | 25.9 nM
19 | CCUGGCUUAGGAUAUACAGGAACCGGGAACCCGGAAGUGAAACAUGAGGAUCACCCAUGUAGAAGGAAGAAAGC [Leusanzaus] | 23.9 nM | 19.1 nM
20 | CGUCCACAUGAGGAUCACCCAUGUUAGGAUAUCUAUACUAAAUACAAAACCCAAGUCAAGAGAAGGAGCAGGGC [Teteeresve] | 13.9 nM | 12 nM
21 | CGUUGGCGAGGAUAUACAUGAGGAUCACCCAUGUGAGAGAAAAAAGUGAGAAAGAAAAGUAGAAGGCGCUGACC [salish99-ex3-13] | 45.1 nM | 162 nM
22 | CUCAAGUCAGGAUAUAUAAGAAAAGAAGAGAAAGAAAAGAAAUAGAAGGGACAUGAGGAUCACCCAUGUAAGAA [EteRNA is fun!] | 34.5 nM | 36.9 nM

Row | Sequence | apparent KD of MS2 coat protein (MS2 coat protein [1]) | apparent KD of MS2 coat protein (MS2 coat protein [2])
23 | CUCAAGUCAGGAUAUUAAAGAAAAGAAGAGAAAGAAAAGAAUAAGAAGGGACAUGAGGAUCACCCAUGUAAGAA [EteRNA is fun!] | 57.3 nM | 30.9 nM
24 | CUCAAGUUAGGAUAUGAAAGAAAAGAAGAGAAAGAAAAGAAUCAGAAGGAACAUGAGGAUCACCCAUGUAAGAA [EteRNA is fun!] | 29.7 nM | 19.5 nM
25 | CUCAUGUCAGGAUAUCAGUAGUAAAAAAAAAAAAUUACUACUGAGAAGGGACAUGAGGAUCACCCAUGUACCUU [EX4 302: Super Stable 2] | 25.4 nM | 29.1 nM
26 | CUCAUGUCAGGAUAUCAGUAGUAAAAAAAUAAAAUUACUACUGAGAAGGGACAUGAGGAUCACCCAUGUCAAAA [EX4 363: Super Stable 63] | 20.7 nM | 19.8 nM
27 | CUCAUGUCAGGAUAUCCAUGAAAUGAAGUGAAAGAAAAGAAGGAGAAGGGACAUGAGGAUCACCCAUGUUAGAA [EteRNA is fun!] | 34.1 nM | 17.1 nM
28 | CUCAUGUUAGGAUAUAUAUGAAAUGAAGUGAAAGAAAAGAAAUAGAAGGAACAUGAGGAUCACCCAUGUUAGAA [EteRNA is fun!] | 51 nM | 32.6 nM
29 | CUCUAGUCAGGAUAUGCAAGAAAAGAAGAGAAAGAAAAGAAGCAGAAGGGACAUGAGGAUCACCCAUGUAAGAA [EteRNA is fun!] | 51.3 nM | 83.4 nM
30 | CUCUAGUGAGGAUAUCCAAGAAAAGAAGAGAAAGAAAAGAAGGAGAAGGCACAUGAGGAUCACCCAUGUAAGAA [EteRNA is fun!] | 44.1 nM | 35.8 nM
31 | CUCUUGUCAGGAUAUCCAAGAAAAGAAAAGAAAGAAAAGAAGGAGAAGGGACAUGAGGAUCACCCAUGUAAGAA [EteRNA is fun!] | 72.3 nM | 113 nM
32 | CUCUUGUCAGGAUAUUGAAGAAAAGAAAAGAAAGAAAAGAACAAGAAGGGACAUGAGGAUCACCCAUGUAAGAA [EteRNA is fun!] | 74.2 nM | 60.7 nM
33 | CUCUUGUGAGGAUAUCGAAGAAAAGAAAAGAAAGAAAAGAACGAGAAGGCACAUGAGGAUCACCCAUGUAAGAA [EteRNA is fun!] | 53.1 nM | 61.8 nM
34 | GAAAAACAUGAGGAUCACCCAUGUAAGGAUAUGCUAAAAAACGCAAAAAAAGCGAAUAGCAGAAGGUACAAAAA [Mat - Exclusion 1 - Eli mod - D83] | 20.6 nM | 33.4 nM
35 | GAAAACAGAGGAUAUACGGGAUUGACACGAAAAGUGCAAAAACAUGAGGAUCACCCAUGUAGAAGGCUGAAGAA [Meechl MS2... 60% 2] | 31.5 nM | 42.5 nM
36 | GAAAAGGCAGGAUAUGCAAGGAUAUAGAAGGAAAAAAAAAAACAUGAGGAUCACCCAUGUAGAAGGGCCAAAAG [salish99-ex2-10] | 57.2 nM | 33.5 nM
37 | GAAAAGUCAGGAUAUAUGCGAAAAAUAAAAAAAAUAAAAACAUAGAAGGGACAUGAGGAUCACCCAUGUUAAAA [Mat - Exclusion 4 - Mayanna - D134] | 41.6 nM | 29.7 nM
38 | GAAAAGUCAGGAUAUGUACAAAAUAAAAUAAAAAUAAAAGUACAGAAGGGACAUGAGGAUCACCCAUGUAAAAG [Mat - Exclusion 4 - Mayanna - D120] | 72.4 nM | 54.2 nM
39 | GAAAAGUUAGGAUAUACAGAUAAAAAAACGAAAAAAAAUCUGUAGAAGGAACAUGAGGAUCACCCAUGUAAAAG [Mat - Exclusion 4 - Mayanna - D103] | 34.7 nM | 30.8 nM
40 | GAAGAACAUGAGGAUCACCCAUGUCAGGAUAUACAGAAGGGAAUAAUAAAAUCUGGAAGUAGAAGGGACAAGAA [Ex 1 May 46] | 32.5 nM | 49.3 nM
41 | GAAGAACAUGAGGAUCACCCAUGUCAGGAUAUACAGAAGGGAAUAAUAUAACCUGAAAGUAGAAGGGACAAGAA [Ex 1 May 43] | 33.9 nM | 46.2 nM
42 | GAAUGACUAGGAUAUACAUGAGGAUCACCCAUGUGUAUAAAUAAAUACACAAAAGAAAGUAGAAGGAGUCAAAG [Mat - Exclusion 3 - Mayanna mod - D124] | 20.8 nM | 83.2 nM
43 | GAGAAGUUAGGAUAUACAGCGGGUAGCCGCGGUGGCCUUAGACAUGAGGAUCACCCAUGUAGAAGGAACGAAAA [Tebied] | 28.9 nM | 12.6 nM
44 | GAUCAGCUAGGAUAUACAUUAAUCCGAAAUGAGAAGAAAGAACAUGAGGAUCACCCAUGUAGAAGGAGCCAGUA [Usinisat] | 33.7 nM | 32.1 nM
